Columns and labels:
[1] = target: T1, Human c-Met-His (SinoBiological, Cat. No. 10692-H08H) (human, UniProt P08581 25-932); assay: SPR (Biacore), antibody captured on anti-hIgG Fc chip, human c-Met-His as analyte
T1 construct: Bought protein; also called c-Met-His protein; human c-Met protein; not shown: His tag

[2] = target: T2, EGFR and c-Met on the surface of tumor cells (human, UniProt P00533 25-1210; P08581 25-1390); assay: cell-based or functional assay
[3] = target: T2, EGFR and c-Met on the surface of tumor …; assay: cell-based or functional assay; remark: listed apart in the source
[4] = target: T2, EGFR and c-Met on the surface of tumor …; assay: cell-based or functional assay; remark: listed apart in the source
[5] = target: T2, EGFR and c-Met on the surface of tumor …; assay: flow cytometry, A431 cells (high EGFR, low c-Met)
[6] = target: T2, EGFR and c-Met on the surface of tumor …; assay: flow cytometry, NCI-H1993 cells (medium EGFR, high c-Met)
[7] = target: T2, EGFR and c-Met on the surface of tumor …; assay: flow cytometry, NCI-H1975 cells (medium EGFR, low to medium c-Met)

T1 sequence (P08581 25-932 limits assumed): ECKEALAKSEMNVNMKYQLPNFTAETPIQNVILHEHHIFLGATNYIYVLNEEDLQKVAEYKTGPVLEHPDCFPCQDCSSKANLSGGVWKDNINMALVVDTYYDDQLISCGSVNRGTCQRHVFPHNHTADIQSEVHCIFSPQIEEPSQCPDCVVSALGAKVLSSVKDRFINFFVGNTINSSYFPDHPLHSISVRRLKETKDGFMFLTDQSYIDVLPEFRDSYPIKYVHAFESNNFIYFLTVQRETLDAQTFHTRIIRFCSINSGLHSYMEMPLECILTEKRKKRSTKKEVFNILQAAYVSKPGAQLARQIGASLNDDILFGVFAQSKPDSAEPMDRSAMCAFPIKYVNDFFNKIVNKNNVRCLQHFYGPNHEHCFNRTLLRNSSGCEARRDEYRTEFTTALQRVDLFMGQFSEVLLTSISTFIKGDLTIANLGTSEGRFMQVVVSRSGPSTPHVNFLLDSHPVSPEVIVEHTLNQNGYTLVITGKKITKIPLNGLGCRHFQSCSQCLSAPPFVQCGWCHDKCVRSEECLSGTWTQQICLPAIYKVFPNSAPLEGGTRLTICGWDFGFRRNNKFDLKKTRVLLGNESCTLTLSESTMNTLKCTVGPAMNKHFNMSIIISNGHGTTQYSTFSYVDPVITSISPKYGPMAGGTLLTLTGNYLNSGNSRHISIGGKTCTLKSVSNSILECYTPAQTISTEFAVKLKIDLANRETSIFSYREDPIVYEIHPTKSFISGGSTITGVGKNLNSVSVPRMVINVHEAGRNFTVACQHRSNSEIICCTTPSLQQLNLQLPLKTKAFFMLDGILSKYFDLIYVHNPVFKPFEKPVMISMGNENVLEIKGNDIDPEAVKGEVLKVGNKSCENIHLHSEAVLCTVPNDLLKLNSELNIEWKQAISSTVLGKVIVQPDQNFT

Binder	Kd [1]	koff [1]	kon [1]	IC50 for inhibiting proliferation of KP4 cells (CCK8) [2]	IC50 for inhibiting proliferation of NCI-H292 cells (CCK8, with 1 ng/mL HGF) [2]	ADCC lysis EC50, KP4 cells, human PBMC effectors [3]	ADCC lysis EC50, NCI-H292 cells, human PBMC effectors [3]	endocytic activity EC50, A431 cells (flow cytometry, internalization reagent) [4]	endocytic activity EC50, NCI-H441 cells (flow cytometry, internalization reagent) [4]	endocytic activity EC50, NCI-H1975 cells (flow cytometry, internalization reagent) [4]	EC50 [5]	EC50 [6]	EC50 [7]
anti-EGFR/anti-c-Met multispecific antibody V74 (bispecific antibody, human IgG1, kappa, knob-into-hole Fc; expressed in FUT8-/- CHO-S cells) EVQLVESGGGSVQAGGSLRLSCAVSGFTVSSNFMAWFRQAPGKGREWVSTITTGAGNTAYADSVKGRFTISEDNSKNTAYLQMNSLRAEDTAVYYCAAGRGGFWRPAEYDFWGQGTTVTVSSGGGGSQVQLVESGGGSVQPGGSLRLSCAASGYSYSANCVGWFRQAPGKGREGVSAINTGGETATYADFVKGRFTISRDNAKNTVYLQMNSLRAEDTAVYYCAAVGTRKYWDECSLSQHAYKNWGQGTLVTVSSGEPKSSDKTHTCPPCPAPELLGGPSVFLFPPKPKDTLMISRTPEVTCVVVDVSHEDPEVKFNWYVDGVEVHNAKTKPREEQYNSTYRVVSVLTVLHQDWLNGKEYKCKVSNKALPAPIEKTISKAKGQPREPQVCTLPPSREEMTKNQVSLSCAVKGFYPSDIAVEWESNGQPENNYKTTPPVLDSDGSFFLVSKLTVDKSRWQQGNVFSCSVMHEALHNRYTQKSLSLSPGK heavy: not shown light: not shown	0.548 nM	0.000128 s⁻¹	234000 M⁻¹ s⁻¹										
amivantamab (bispecific antibody) chain 1: not shown chain 2: not shown chain 3: not shown chain 4: DIQMTQSPSSVSASVGDRVTITCRASQGISNWLAWFQHKPGKAPKLLIYAASSLLSGVPSRFSGSGSGTDFTLTISSLQPEDFATYYCQQANSFPITFGQGTRLEIKRTVAAPSVFIFPPSDEQLKSGTASVVCLLNNFYPREAKVQWKVDNALQSGNSQESVTEQDSKDSTYSLSSTLTLSKADYEKHKVYACEVTHQGLSSPVTKSFNRGEC				29 nM	45.8 nM	0.0171 nM	0.021 nM	15.1 nM	35.6 nM	15.2 nM	1.62 nM	0.596 nM	0.378 nM
anti-EGFR/anti-c-Met multispecific antibody V35 (bispecific antibody, human IgG1, kappa, Three chains, trivalent: 1B-1B6-V2 VHH - 1B-1C7-V1 VHH - Fc plus anti-EGFR Fab arm; knob-into-hole Fc; expressed in FUT8-/- CHO-S cells) QVQLLESGGGSVQAGGSLRLSCAASGHTYSSGCMGWFRQAPGKGREGVATIYTRNDFTYYSDSVKGRFTISRDNSKNTVYLQMNSLRAEDTAVYYCAAGSPFRYAGAWNVCGLKEEDYNYWGQGTLVTVSSGGGGSGGGGSQVQLVESGGGSVQPGGSLRLSCAASGYSYSANCVGWFRQAPGKGREGVSAINTGGETATYADFVKGRFTISRDNAKNTVYLQMNSLRAEDTAVYYCAAVGTRKYWDECSLSQHAYKNWGQGTLVTVSSGEPKSSDKTHTCPPCPAPELLGGPSVFLFPPKPKDTLMISRTPEVTCVVVDVSHEDPEVKFNWYVDGVEVHNAKTKPREEQYNSTYRVVSVLTVLHQDWLNGKEYKCKVSNKALPAPIEKTISKAKGQPREPQVCTLPPSREEMTKNQVSLSCAVKGFYPSDIAVEWESNGQPENNYKTTPPVLDSDGSFFLVSKLTVDKSRWQQGNVFSCSVMHEALHNRFTQKSLSLSPGK heavy: not shown light: not shown	0.318 nM	3.34e-05 s⁻¹	105000 M⁻¹ s⁻¹										

Second part, the binder after the results:

Kd [1]	koff [1]	kon [1]	IC50 for inhibiting proliferation of KP4 cells (CCK8) [2]	IC50 for inhibiting proliferation of NCI-H292 cells (CCK8, with 1 ng/mL HGF) [2]	ADCC lysis EC50, KP4 cells, human PBMC effectors [3]	ADCC lysis EC50, NCI-H292 cells, human PBMC effectors [3]	endocytic activity EC50, A431 cells (flow cytometry, internalization reagent) [4]	endocytic activity EC50, NCI-H441 cells (flow cytometry, internalization reagent) [4]	endocytic activity EC50, NCI-H1975 cells (flow cytometry, internalization reagent) [4]	EC50 [5]	EC50 [6]	EC50 [7]	Binder
0.276 nM	7.01e-05 s⁻¹	254000 M⁻¹ s⁻¹											anti-EGFR/anti-c-Met multispecific antibody V67 (bispecific antibody, human IgG1, kappa, knob-into-hole Fc; expressed in FUT8-/- CHO-S cells) EVQLVESGGGSVQAQGSLRLSCTVSGSTYSSNFMAWFRQAPGKEREWVATITTGAGNTAYADSVKGRFTISEDNAKRTAYLQMNSLKPEDTAVYYCAAGRGGFWRPAEYDFWGQGTQVTVSSGGGGSQVQLVESGGGSVQPGGSLRLSCAASGYSYSANCVGWFRQAPGKGREGVSAINTGGETATYADFVKGRFTISRDNAKNTVYLQMNSLRAEDTAVYYCAAVGTRKYWDECSLSQHAYKNWGQGTLVTVSSGEPKSSDKTHTCPPCPAPELLGGPSVFLFPPKPKDTLMISRTPEVTCVVVDVSHEDPEVKFNWYVDGVEVHNAKTKPREEQYNSTYRVVSVLTVLHQDWLNGKEYKCKVSNKALPAPIEKTISKAKGQPREPQVCTLPPSREEMTKNQVSLSCAVKGFYPSDIAVEWESNGQPENNYKTTPPVLDSDGSFFLVSKLTVDKSRWQQGNVFSCSVMHEALHNRYTQKSLSLSPGK heavy: not shown light: not shown
0.458 nM	9.03e-05 s⁻¹	197000 M⁻¹ s⁻¹	7.99 nM	5.36 nM	0.027 nM	0.0181 nM	8.33 nM	16.7 nM	12.4 nM	1.91 nM	1.02 nM	0.794 nM	anti-EGFR/anti-c-Met multispecific antibody V73 (bispecific antibody, human IgG1, kappa, knob-into-hole Fc; expressed in FUT8-/- CHO-S cells) EVQLVESGGGSVQAGGSLRLSCAVSGFTVSSNFMAWFRQAPGKGREWVSTITTGAGNTAYADSVKGRFTISEDNSKNTLYLQMNSLRAEDTAVYYCAAGRGGFWRPAEYDFWGQGTTVTVSSGGGGSQVQLVESGGGSVQPGGSLRLSCAASGYSYSANCVGWFRQAPGKGREGVSAINTGGETATYADFVKGRFTISRDNAKNTVYLQMNSLRAEDTAVYYCAAVGTRKYWDECSLSQHAYKNWGQGTLVTVSSGEPKSSDKTHTCPPCPAPELLGGPSVFLFPPKPKDTLMISRTPEVTCVVVDVSHEDPEVKFNWYVDGVEVHNAKTKPREEQYNSTYRVVSVLTVLHQDWLNGKEYKCKVSNKALPAPIEKTISKAKGQPREPQVCTLPPSREEMTKNQVSLSCAVKGFYPSDIAVEWESNGQPENNYKTTPPVLDSDGSFFLVSKLTVDKSRWQQGNVFSCSVMHEALHNRYTQKSLSLSPGK heavy: not shown light: not shown
0.368 nM	3.57e-05 s⁻¹	97000 M⁻¹ s⁻¹											anti-EGFR/anti-c-Met multispecific antibody V41 (bispecific antibody, human IgG1, kappa, Three chains, trivalent: 1B-1B6-V1 VHH - 1B-1C7-V1 VHH - Fc plus anti-EGFR Fab arm; knob-into-hole Fc; expressed in FUT8-/- CHO-S cells) QVQLLESGGGSVQAGGSLRLSCAASGFTFSSGCMGWFRQAPGKGREGVATIYTRNDFTYYSDSVKGRFTISRDNSKNTVYLQMNSLRAEDTAVYYCAAGSPFRYAGAWNVCGLKEEDYNYWGQGTLVTVSSGGGGSGGGGSQVQLVESGGGSVQPGGSLRLSCAASGYSYSANCVGWFRQAPGKGREGVSAINTGGETATYADFVKGRFTISRDNAKNTVYLQMNSLRAEDTAVYYCAAVGTRKYWDECSLSQHAYKNWGQGTLVTVSSGEPKSSDKTHTCPPCPAPELLGGPSVFLFPPKPKDTLMISRTPEVTCVVVDVSHEDPEVKFNWYVDGVEVHNAKTKPREEQYNSTYRVVSVLTVLHQDWLNGKEYKCKVSNKALPAPIEKTISKAKGQPREPQVCTLPPSREEMTKNQVSLSCAVKGFYPSDIAVEWESNGQPENNYKTTPPVLDSDGSFFLVSKLTVDKSRWQQGNVFSCSVMHEALHNRFTQKSLSLSPGK heavy: not shown light: not shown
0.438 nM	4.39e-05 s⁻¹	100000 M⁻¹ s⁻¹	13.1 nM	13.7 nM	0.0117 nM	0.0135 nM	10.5 nM	11.8 nM	9.66 nM	1.85 nM	1.03 nM	0.755 nM	anti-EGFR/anti-c-Met multispecific antibody V42 (bispecific antibody, human IgG1, kappa, Three chains, trivalent: 1B-1B6-V3 VHH - 1B-1C7-V1 VHH - Fc plus anti-EGFR Fab arm; knob-into-hole Fc; expressed in FUT8-/- CHO-S cells) QVQLLESGGGSVQAGGSLRLSCAASGHTYSSGCMGWFRQAPGKGREGVATIYTRNDFTYYSDTVKGRFTISRDNSKNTVYLQMNSLRAEDTAVYYCAAGSPFRYAGAWNVCGLKEEDYNYWGQGTLVTVSSGGGGSGGGGSQVQLVESGGGSVQPGGSLRLSCAASGYSYSANCVGWFRQAPGKGREGVSAINTGGETATYADFVKGRFTISRDNAKNTVYLQMNSLRAEDTAVYYCAAVGTRKYWDECSLSQHAYKNWGQGTLVTVSSGEPKSSDKTHTCPPCPAPELLGGPSVFLFPPKPKDTLMISRTPEVTCVVVDVSHEDPEVKFNWYVDGVEVHNAKTKPREEQYNSTYRVVSVLTVLHQDWLNGKEYKCKVSNKALPAPIEKTISKAKGQPREPQVCTLPPSREEMTKNQVSLSCAVKGFYPSDIAVEWESNGQPENNYKTTPPVLDSDGSFFLVSKLTVDKSRWQQGNVFSCSVMHEALHNRFTQKSLSLSPGK heavy: not shown light: not shown
0.325 nM	4.62e-05 s⁻¹	142000 M⁻¹ s⁻¹											anti-EGFR/anti-c-Met multispecific antibody V12 (bispecific antibody, human IgG1, kappa, Three chains, trivalent: 1B-1B6 VHH - 1B-1C7 VHH - Fc plus anti-EGFR Fab arm; knob-into-hole Fc; expressed in FUT8-/- CHO-S cells) QVQLVESGGDSVQAGGSLRLSCAASAHAYSSGCMGWFRQAPGKGREGVATIYTRNDFTYYSDSVKGRFTISRDDAKNTVYLQVNSLKAEDTAMYYCAAGSPFRYAGAWNVCGLKEEDYNYWGQGTLVTVSSGGGGSGGGGSQVQLVESGGGLVQPGGSLRLSCAASGYSYSANCVGWFYQAPGKEREGVAAINTGGETATYADFVKGRFTISQDYAKNTVYLQMNSLKSEDTGMYYCAAVGTRKYWDECSLSQHAYKNWGQGTLVTVSSGEPKSSDKTHTCPPCPAPELLGGPSVFLFPPKPKDTLMISRTPEVTCVVVDVSHEDPEVKFNWYVDGVEVHNAKTKPREEQYNSTYRVVSVLTVLHQDWLNGKEYKCKVSNKALPAPIEKTISKAKGQPREPQVCTLPPSREEMTKNQVSLSCAVKGFYPSDIAVEWESNGQPENNYKTTPPVLDSDGSFFLVSKLTVDKSRWQQGNVFSCSVMHEALHNRFTQKSLSLSPGK heavy: not shown light: not shown
